Results as given in patent US20220324970A1 (Janssen / Centocor, published 2022).

How the values were obtained:
[1] = biological target: T1, human pIgR extracellular domain (ECD) (human, UniProt P01833 19-638); assay: BLI, screen of the VHH clones generated from mpIgR antigen
T1 construct: also called hpIgR ECD
Target sequence in this assay (P01833 other isoform, or with tags, fused parts or gaps): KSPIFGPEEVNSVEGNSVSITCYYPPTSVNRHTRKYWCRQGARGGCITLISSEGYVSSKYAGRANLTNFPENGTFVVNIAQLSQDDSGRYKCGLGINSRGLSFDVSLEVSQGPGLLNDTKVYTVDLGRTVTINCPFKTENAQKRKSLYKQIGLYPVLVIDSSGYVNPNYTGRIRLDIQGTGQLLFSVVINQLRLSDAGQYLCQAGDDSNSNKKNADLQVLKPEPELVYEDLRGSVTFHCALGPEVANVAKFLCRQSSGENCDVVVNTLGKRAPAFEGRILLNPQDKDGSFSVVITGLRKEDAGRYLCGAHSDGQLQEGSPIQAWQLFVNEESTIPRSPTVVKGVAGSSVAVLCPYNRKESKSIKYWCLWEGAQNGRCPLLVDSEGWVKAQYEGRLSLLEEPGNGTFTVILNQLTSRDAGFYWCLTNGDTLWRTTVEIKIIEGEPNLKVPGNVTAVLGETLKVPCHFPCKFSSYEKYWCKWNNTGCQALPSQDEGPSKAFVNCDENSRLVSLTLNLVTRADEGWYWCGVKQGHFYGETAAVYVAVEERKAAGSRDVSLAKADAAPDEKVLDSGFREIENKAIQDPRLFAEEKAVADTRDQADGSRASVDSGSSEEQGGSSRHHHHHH

[2] = biological target: T2, mouse pIgR extracellular domain (ECD) (mouse, UniProt O70570 19-645); assay: as above
T2 construct: The entry ends with a HHHHHH tag; also called mpIgR; mpIgR ectodomain
T2 sequence: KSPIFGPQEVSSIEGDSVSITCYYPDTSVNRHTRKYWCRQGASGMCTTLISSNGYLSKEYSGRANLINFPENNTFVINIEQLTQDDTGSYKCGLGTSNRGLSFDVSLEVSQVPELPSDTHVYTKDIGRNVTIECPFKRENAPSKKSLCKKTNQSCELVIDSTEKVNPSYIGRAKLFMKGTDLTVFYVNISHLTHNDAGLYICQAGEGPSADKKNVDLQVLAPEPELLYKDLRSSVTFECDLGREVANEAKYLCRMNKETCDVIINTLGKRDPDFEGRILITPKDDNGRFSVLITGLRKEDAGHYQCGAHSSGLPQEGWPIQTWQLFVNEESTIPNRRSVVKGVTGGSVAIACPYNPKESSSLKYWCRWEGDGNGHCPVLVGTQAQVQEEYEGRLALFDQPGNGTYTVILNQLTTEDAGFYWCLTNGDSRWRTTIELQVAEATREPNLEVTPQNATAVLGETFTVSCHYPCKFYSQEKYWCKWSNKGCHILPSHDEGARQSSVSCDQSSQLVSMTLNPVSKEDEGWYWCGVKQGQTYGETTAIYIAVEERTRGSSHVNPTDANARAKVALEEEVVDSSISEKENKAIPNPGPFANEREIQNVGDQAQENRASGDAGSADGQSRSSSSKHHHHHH

[3] = biological target: T3, hpIgR domain-1 with teleost fish CDR2 (hD1 tCDR2) (human, UniProt P01833 19-127, limits assumed); assay: BLI, HIS-tagged construct on anti-HIS biosensors
T3 construct: CDR-swapped hpIgR domain-1 mutant, HIS-tagged, made in HEK293 cells; not shown: HIS tag
T3 chain: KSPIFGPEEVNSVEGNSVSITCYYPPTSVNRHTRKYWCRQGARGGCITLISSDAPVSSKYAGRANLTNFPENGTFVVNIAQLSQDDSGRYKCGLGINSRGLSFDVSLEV

[4] = biological target: T4, human pIgR extracellular domain 4-domain 5 (D4-D5) (human, UniProt P01833 350-565); assay: ECL (MSD) heat map, HIS-tagged construct captured via anti-HIS, anti-human-Fc detection
T4 construct: HIS-tagged construct made in HEK293 cells; also called hpIgR domains 4-5
T4 chain: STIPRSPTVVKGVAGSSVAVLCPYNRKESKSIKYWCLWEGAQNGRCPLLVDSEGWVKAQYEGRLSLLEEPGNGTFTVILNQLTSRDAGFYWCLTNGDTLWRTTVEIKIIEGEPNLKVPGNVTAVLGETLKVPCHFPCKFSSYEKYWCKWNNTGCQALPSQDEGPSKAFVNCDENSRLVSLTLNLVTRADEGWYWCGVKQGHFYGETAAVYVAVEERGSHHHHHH

[5] = biological target: human pIgR, full-length, on cells (human, UniProt P01833 19-764); assay: cell-based or functional assay
Sequence of human pIgR, full-length, on cells (P01833 19-764): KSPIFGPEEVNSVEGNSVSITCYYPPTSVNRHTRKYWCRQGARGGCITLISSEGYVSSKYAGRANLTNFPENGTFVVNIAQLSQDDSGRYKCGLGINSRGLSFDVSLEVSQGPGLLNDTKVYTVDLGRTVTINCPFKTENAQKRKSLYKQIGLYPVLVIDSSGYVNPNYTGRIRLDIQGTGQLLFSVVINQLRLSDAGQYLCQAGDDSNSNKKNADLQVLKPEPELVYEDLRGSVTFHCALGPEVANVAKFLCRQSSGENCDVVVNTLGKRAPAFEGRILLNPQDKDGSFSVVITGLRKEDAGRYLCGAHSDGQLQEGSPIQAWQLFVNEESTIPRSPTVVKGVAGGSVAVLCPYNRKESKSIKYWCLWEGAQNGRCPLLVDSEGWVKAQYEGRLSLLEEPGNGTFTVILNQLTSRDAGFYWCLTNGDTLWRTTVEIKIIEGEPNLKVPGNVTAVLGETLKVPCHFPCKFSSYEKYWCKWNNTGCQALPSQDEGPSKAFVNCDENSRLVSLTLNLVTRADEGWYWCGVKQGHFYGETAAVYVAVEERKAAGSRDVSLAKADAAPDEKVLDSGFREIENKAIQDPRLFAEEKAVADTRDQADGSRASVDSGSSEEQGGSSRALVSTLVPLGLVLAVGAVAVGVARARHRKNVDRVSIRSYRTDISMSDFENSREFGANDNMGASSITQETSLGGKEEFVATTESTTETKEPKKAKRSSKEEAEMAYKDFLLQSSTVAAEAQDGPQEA

[6] = biological target: T1, human pIgR extracellular domain (ECD); assay: ECL (MSD), anti-VHH detection against anti-Fc detection
Target sequence in this assay (P01833 other isoform, or with tags, fused parts or gaps): as the sequence (P01833 other isoform, or with tags, fused parts or gaps) above
Method: To check whether VHH recognizes a buried epitope on pIgR, EC₅₀ values were measured for VHH-mono-Fc molecules binding to hpIgR-ECD protein by electrochemiluminescence using two different detection antibodies, an anti-Fc antibody and an anti-VHH antibody. pIgR ECD (10 μg/ml in PBS) was coated on high-bind MSD plates for 2 hours at RT with 1000 rpm, incubated with blocking buffer for 1 hour at RT, incubated with VHH-mono-Fc molecules (increasing concentrations in PBS) for 2 hours at RT with 1000 rpm, washed 3× with PBT, incubated with ruthenylated secondary antibody (2 μg/ml in PBS) for 1 hour at RT with 1000 rpm, washed 3× with PBT and read plates in 40 ul reading buffer using the MSD imager. EC50 was calculated by fitting log VHH concentration versus log ECLU in Prism (Graphpad). The increase in EC₅₀ (>50-fold) due to anti-VHH detection was used as a measure to determine whether VHH recognized buried epitope on pIgR.

[7] = biological target: T1, human pIgR extracellular domain (ECD); assay: BLI; summary table, repeats Table 1; summary Table 4
Target sequence in this assay (P01833 other isoform, or with tags, fused parts or gaps): as above

[8] = biological target: T1, human pIgR extracellular domain (ECD); assay: ECL (MSD), hpIgR-ECD coated, anti-Fc detection
[9] = biological target: T5, human pIgR extracellular domain 2 (D2) (human, UniProt P01833 128-242); assay: ECL (MSD) heat map, HIS-tagged construct captured via anti-HIS, anti-human-Fc detection;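 further: VHH-mono-Fc molecules tested at 100 µg/ml for 2 h on captured His-tagged pIgR constructs (10 µg/ml), read-out as electrochemiluminescence units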
T5 construct: HIS-tagged construct made in HEK293 cells; also called hpIgR domain 2

[10] = biological target: T6, human pIgR extracellular domain 5 (D5) (human, UniProt P01833 460-565); assay: as above
T6 construct: HIS-tagged construct made in HEK293 cells; also called hpIgR domain 5

[11] = biological target: T1, human pIgR extracellular domain (ECD); assay: BLI, HIS-tagged pIgR construct on anti-HIS biosensors
Target sequence in this assay (P01833 other isoform, or with tags, fused parts or gaps): as above
Method: (§1) Bio-layer Interferometry was performed as follows. […] Data were collected with Octet Data Acquisition version 7.1.0.87 (ForteBio) and analyzed using Octet Data Analysis version 7.1 (ForteBio). To measure binding kinetics between VHH-mono-Fc molecules and HIS-tagged pIgR proteins, VHH-mono-Fc was immobilized on amine-reactive generation-2 (ARG2) biosensors according to manufacturer's instructions and increasing concentrations of pIgR proteins were exposed to sensor-immobilized VHH. In some cases, HIS-tagged pIgR proteins were immobilized on anti-HIS biosensors and exposed to increasing concentrations of VHH-mono-Fc molecules. Association and dissociation rates were measured by the shift in wavelength (nm). […] All reactions were performed at 25° C. in PBS.
(§2) (Full-length hpIgR ECD was purchased from R&D Systems.) The five constructs (D1-D2, D1, D1_tCDR1, D1_tCDR2, D1_tCDR3) were expressed and purified from HEK293 cells using immobilized metal ion affinity chromatography. Three hpIgR domain-1 CDR mutants (D1_tCDR1, D1_tCDR2, D1_tCDR3) contain respective teleost fish CDR on a hpIgR domain-1 framework. His-tagged pIgR constructs were immobilized on anti-HIS biosensors and binding of VHH-mono-Fc molecules to pIgR constructs were measured by bio-layer interferometry.

[12] = biological target: T7, human pIgR extracellular domain 1 (D1) (human, UniProt P01833 19-127); assay: ECL (MSD), Log ECLU against Log [VHH] nM, anti-Fc detection (first EC50 column)
T7 construct: HIS-tagged construct made in HEK293 cells; also called hpIgR domain-1

[13] = biological target: T8, human pIgR extracellular domain 1-domain 2 (D1-D2) (human, UniProt P01833 19-240); assay: as above
T8 construct: HIS-tagged construct made in HEK293 cells

[14] = biological target: T2, mouse pIgR extracellular domain (ECD); assay: BLI, screen of the VHH clones generated from hpIgR antigen
[15] = biological target: T1, human pIgR extracellular domain (ECD); assay: BLI; summary table, repeats Table 1
Target sequence in this assay (P01833 other isoform, or with tags, fused parts or gaps): as above

[16] = biological target: T1, human pIgR extracellular domain (ECD); assay: BLI, HIS-tagged pIgR construct on anti-HIS biosensors; HIS-tagged hpIgR_ECD on anti-HIS biosensors, Table 3
Target sequence in this assay (P01833 other isoform, or with tags, fused parts or gaps): as above
Method: as §1, §2

B1: VHH2-linker-mono-Fc protein (Fc fusion)
chain: EVQVVESGGGLVQAGGSLKLACAAPGLTFSSYRMGWFRQAPGQEREFVAAIDWNGRGTYYRYYADSVKGRSTISRDNAKNTVYLQMNSLKPEDTAVYYCAATTVLTDPRVLNEYATWGQGTQVTVSSEPKTPKPQPQPQLQPQPNPTTESKSPKSPAPELLGGPSVFLFPPKPKDTLMISRTPEVTCVVVDVSHEDPEVKFNWYVDGVEVHNAKTKPREEQYNSTYRVVSVLTVLHQDWLNGKEYKCKVSNKALPAPIEKTISKAKGQPREPQVYTKPPSREEMTKNQVSLSCLVKGFYPSDIAVEWESNGQPENNYKTTVPVLDSDGSFRLASYLTVDKSRWQQGNVFSCSVMHEALHNHYTQKSLSLSPGK
notes: also called VHH2-mono-Fc; mpIgR_338
[1]
  Kd: 22 nM
[2]
  Kd: 1 nM
[3]
  binding result: no binding
[4]
  binding result: no binding (tested: 100 ug/ml (single concentration))
[5]
  increase in their apical concentration relative to control VHH (MDCK-hpIgR monolayers): > 10 fold
[6]
  Fold change in EC50: 1 fold
[7]
  Kd: 21 nM
[8]
  EC50: 4.2 nM
[9]
  binding result: no binding (tested: 100 ug/ml (single concentration))
[10]
  binding result: no binding (tested: 100 ug/ml (single concentration))
[11]
  Kd: 22 nM
[12]
  EC50: 6.8 nM
[13]
  EC50: 1.5 nM

B2: VHH3-linker-mono-Fc protein (Fc fusion)
chain: QLQLVESGGGLVQPGGSLRLSCAASGSIFSINVMGWYRQAPGKQRELVARINGGGITHYAESVKGRFTISRDNAKNTVYLQMNSLKPEDTAAYYCKADVFGSSGYVETYWGQGTQVTVSSEPKTPKPQPQPQLQPQPNPTTESKSPKSPAPELLGGPSVFLFPPKPKDTLMISRTPEVTCVVVDVSHEDPEVKFNWYVDGVEVHNAKTKPREEQYNSTYRVVSVLTVLHQDWLNGKEYKCKVSNKALPAPIEKTISKAKGQPREPQVYTKPPSREEMTKNQVSLSCLVKGFYPSDIAVEWESNGQPENNYKTTVPVLDSDGSFRLASYLTVDKSRWQQGNVFSCSVMHEALHNHYTQKSLSLSPGK
notes: made in CHO cells; also called VHH3-mono-Fc; hpIgR_021
[14]
  Kd: 40 nM
[15]
  Kd: 5 nM
[3]
  binding result: no binding
[16]
  Kd: 10 nM
[6]
  Fold change in EC50: 54 fold
[8]
  EC50: 0.5 nM
[9]
  binding result: no binding (tested: 100 ug/ml (single concentration))
[10]
  binding result: no binding (tested: 100 ug/ml (single concentration))
[12]
  EC50: 3.1 nM
[13]
  EC50: 1.2 nM
